From patent US20090202574A1, “METHODS OF IMMUNE OR HAEMATOLOGICAL ENHANCEMENT, INHIBITING TUMOUR FORMATION OR GROWTH, AND TREATING OR PREVENTING CANCER” (priority 2004, published 2009)

Experiments:
[1] = system: EL-4 tumours; experiment: Apoptotic index of tumour sections (TUNEL, annexin-V-fluos); assay type: in vivo, C57BL/6 mice; conditions: Example 7; vs mice fed control diet; P<0.001
Experimental: For in situ detection of apoptotic cells, tumors were excised and immediately frozen in dry ice, and stored at −70° C. Frozen serial sections of 6-μm thickness were fixed with paraformaldehyde solution (4% in PBS, pH 7.4), and permeabilized with a solution containing 0.1% Triton X-100 and 0.1% sodium citrate. They were incubated with 20 μl TUNEL reagent (In Situ apoptosis detection kit from Boehringer Mannheim, Germany) for 60 min at 37° C., and examined by fluorescence microscopy. Adjacent sections were counter-stained with haematoxylin to count the total number of cells, or the number of apoptotic cells in ten randomly selected fields (magnification of ×40). The apototic index (AI) was calculated as the number of apoptotic cells×100/total number of nucleated cells. For detection of apoptotic cells in vitro, the numbers of apoptotic and necrotic tumour cells were measured by staining with annexin-V-fluos, TUNEL, and trypan blue, as described previously (Kanwar, et al., 2001).
Sections were prepared from tumours of mice shown in FIGS. 4A and 4B at day 56 for the untreated control group fed the control diet, at day 70 for the groups fed either the control or iron-saturated bovine lactoferrin diet receiving paclitaxel and/or doxorubicin, and 7 days after treatment with drugs for mice fed the control diet. […]

[2] = Blood haematological profile (red and white blood cell counts); assay type: in vivo, mice; conditions: blood from the heart at autopsy; mean
Experimental: The red and white blood cell counts of mice sacrificed in the preceding examples were recorded. Oral feeding of bovine iron-saturated lactoferrin alone or in combination with administration of paclitaxel or doxorubicin or both increased the mean values of red and white blood cells compared to control mice and compared to mice administered paclitaxel and doxorubicin but not fed lactoferrin, as shown in Table 1.

[3] = system: Th1 (IL-18, TNF-α, IFN-γ) and Th2 (IL-4, IL-5, IL-6, IL-10) cytokines; experiment: ELISA of Th1 and Th2 cytokines in intestine and tumour; assay type: in vivo, mice; conditions: Example 14
Experimental: (§1) Cytokine levels in the supernatants of homogenates of the small intestine were determined using a “sandwich” ELISA kit (Endogen, Woburn, Mass.). They were detected within standard curve ranges of 15-375 pg/ml for IL-4, 0-2450 pg/ml for IL-5, 15-1000 pg/ml for TNF-α, 0-3000 pg/ml for IFN-γ, 37-3000 pg/ml for IL-10, 31.3-2000 pg/ml for IL-12, and 31.3-2000 pg/ml for IL-18, respectively. Quantification of nitrite, indicative of NO production, was carried out by the Griess reaction (Sigma, USA). The results are expressed as the mean nitrite concentration (μM)±SD.
(§2) The ability of oral iron-saturated lactoferrin to affect the expression of a panel of Th1 and Th2 cytokines was examined in non-tumour-bearing mice, and in tumour-bearing mice fed iron-saturated bovine lactoferrin or the control diet, and treated with either paclitaxel or doxorubicin or a combination of the two drugs.

[4] = system: Nitrous oxide; experiment: Nitrite (Griess reaction) at tumour site and in intestine; assay type: in vivo, mice; conditions: Example 14, P<0.001
Experimental: as §1, §2

[5] = system: cultured EL-4 tumour cells; experiment: Apoptosis of cultured EL-4 tumour cells triggered by sera of fed mice; assay type: cell-based, C57BL/6 mice; conditions: Example 17; sera after 6 weeks of 28 g per 2.4 Kg diet; vs spontaneous apoptosis; control-diet sera 80%
Experimental: Feeding of Fe-saturated lactoferrin releases anti-tumour factors into the systemic circulation. Fifteen 8 to 9 week-old female C57BL/6 mice were fed the control AIN-93 diet or a diet supplemented with 28 g of 100% Fe-saturated lactoferrin per 2.4 Kg of diet. Sera was collected from experimental and control mice after 6 weeks of feeding the latter diets and tested for their ability to trigger the apoptosis of cultured EL-4 tumour cells.
Sera collected from experimental and control mice was tested for its ability to trigger the apoptosis of cultured EL-4 tumour cells. EL-4 cells (2×10^3) in 80 μl of DMEM media were incubated for 24 h in the presence or absence of 100 μl of sera that had been concentrated to 20 μl. The cells were then washed, permeabilized with a solution containing 0.1% Triton X-100 and 0.1% sodium citrate, and incubated with 20 μl of TUNEL reagent (In Situ apoptosis detection kit from Boehringer Mannheim, Germany) for 60 min at 37° C., and examined by fluorescence microscopy. Total numbers of cells were counted by staining the cells with methylene blue. The number of apoptotic cells was counted in ten randomly selected fields (magnification of ×40). The apototic index (AI) was calculated as the number of apoptotic cells×100/total number of nucleated cells.

[6] = system: IL-18; experiment: IL-18 production by cultured intestinal loops; assay type: cell-based, mice; conditions: Example 20; 400 and 800 μg/ml; 48 h; vs bovine serum albumin control protein
Experimental: as §1
100% Fe-saturated Lf, natural Lf (less than 20% iron saturated), and bovine serum albumin control were added at 400 and 800 μg/ml to intestinal loops (2.5 cm segments of the small intestine) prepared from healthy 6 to 7 week-old female mice, which were kept in culture for 48 h. IL-18 levels released by the intestinal loops, and present in the supernatants of homogenates of the small intestine were determined using a “sandwich” ELISA kit as described above.

B1: iron-saturated bovine lactoferrin: Iron-saturated bovine lactoferrin extract (100% saturated) prepared from natural bLf (protein)
chain: APRKNVRWCTISQPEWFKCRRWQWRMKKLGAPSITCVRRAFALECIRAIAEKKADAVTLDGGMVFEAGRDPYKLRPVAAEIYGTKESPQTHYYAVAVVKKGSNFQLDQLQGRKSCHTGLGRSAGWIIPMGILRPYLSWTESLEPLQGAVAKFFSASCVPCIDRQAYPNLCQLCKGEGENQCACSSREPYFGYSGAFKCLQDGAGDVAFVKETTVFENLPEKADRDQYELLCLNNSRAPVDAFKECHLAQVPSHAVVARSVDGKEDLIWKLLSKAQEKFGKNKSRSFQLFGSPPGQRDLLFKDSALGFLRIPSKVDSALYLGSRYLTTLKNLRETAEEVKARYTRVVWCAVGPEEQKKCQQWSQQSGQNVTCATASTTDDCIVLVLKGEADALNLDGGYIYTAGKCGLVPVLAENRKSSKHSSLDCVLRPTEGYLAVAVVKKANEGLTWNSLKDKKSCHTAVDRTAGWNIPMGLIVNQTGSCAFDEFFSQSCAPGADPKSRLCALCAGDDQGLDKCVPNSKEKYYGYTGAFRCLAEDVGDVAFVKNDTVWENTNGESTADWAKNLNREDFRLLCLDGTRKPVTEAQSCHLAVAPNHAVVSRSDRAAHVKQVLLHQQALFGKNGKNCPDKFCLFKSETKNLLFNDNTECLAKLGGRPTYEEYLGTEYVTAIANLKKCSTSPLLEACAFLTR
modifications: iron-saturated; Bovine Lactoferrin
notes: Iron-saturated bovine lactoferrin extract (100% saturated) prepared from natural bLf
increase in the apoptotic index of tumours [1]: 1.9 fold | RBCs [2]: 8.2 ± 2.5 ×10^6/mm^3 | WBCs [2]: 3.5 ± 1.2 ×10^3/mm^3 | cytokines within the tumor site [3]: increased the presence of all cytokines | levels of IL-18 and IL-10 in tumour-bearing mice relative to non-tumour-bearing mice ([3]; oral feeding): less than half | increase in nitrous oxide [4]: 3 to 4 fold | increase in tumour cell apoptosis induced by sera [5]: 300% | increase in the levels of IL-18 in the intestine [6]: 10 fold
